According to article PMC6208734:

Experiments:
[1] = target: AD-PHF Tau (paired helical filament Tau isolated from Alzheimer's disease brains) (human (endogenous in AD brain))
[2] = target: AD-PHF Tau (paired helical filament Tau isolated from Alzheimer's disease brains) (human (endogenous in AD brain)); assay: SPR; AD-PHF fraction 11 amine-coupled to a CM5 chip (about 500 RU); full-length IgG 1-300 nM as analyte, 180 s injection, 1200 s dissociation; BIAcore T200, 25 °C; HBS-EP+ with additional 150 mM NaCl and 1.25% CM-Dextran; extrinsic affinity; 1:1 binding or bivalent analyte model

AD-PHF Tau (paired helical filament Tau isolated from Alzheimer's disease brains) (human (endogenous in AD brain)), sequence (P10636 2-758): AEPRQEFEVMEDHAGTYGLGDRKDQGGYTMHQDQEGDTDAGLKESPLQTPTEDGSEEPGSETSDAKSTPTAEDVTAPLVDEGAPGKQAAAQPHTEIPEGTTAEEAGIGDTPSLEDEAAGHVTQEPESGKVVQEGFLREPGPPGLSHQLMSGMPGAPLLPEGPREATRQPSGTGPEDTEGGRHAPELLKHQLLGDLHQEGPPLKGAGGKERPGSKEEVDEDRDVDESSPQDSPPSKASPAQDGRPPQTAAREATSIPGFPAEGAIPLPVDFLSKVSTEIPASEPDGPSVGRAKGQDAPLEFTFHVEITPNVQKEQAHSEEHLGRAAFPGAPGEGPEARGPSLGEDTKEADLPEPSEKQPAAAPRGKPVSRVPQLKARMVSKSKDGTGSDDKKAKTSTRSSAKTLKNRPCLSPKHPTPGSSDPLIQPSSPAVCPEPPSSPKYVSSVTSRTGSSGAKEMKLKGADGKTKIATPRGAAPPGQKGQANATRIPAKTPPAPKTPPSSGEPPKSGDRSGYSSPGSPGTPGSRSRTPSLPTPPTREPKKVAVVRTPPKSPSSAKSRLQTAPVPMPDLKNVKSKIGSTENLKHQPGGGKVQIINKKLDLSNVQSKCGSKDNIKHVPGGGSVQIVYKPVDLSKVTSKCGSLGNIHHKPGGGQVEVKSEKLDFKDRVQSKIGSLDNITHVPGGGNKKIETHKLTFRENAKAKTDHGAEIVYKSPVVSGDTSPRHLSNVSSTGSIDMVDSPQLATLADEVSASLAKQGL

B1: antibody B (antibody, V domains shown)
VH: EVKVEESGGGLVQPGGSMKLSCVVSGFTFSNYWVNWVRQSPEKGLEWVAQIRLKSDNYATHYEESVKGRFTISRDDSKSSVYLQMNNLRAEDSGIYYCTNWEDYWGQGTTLTVSS
VL: DIVLTQSPASLAVSLGQRATISCRASQSVSTSRYSYIHWYQQKPGQPPKLLIKYASNLESGVPARFSGSGSGTDFTLNIHPLEEEDAATYYCHHSWEIPLTFGAGTKLELK
Question: How did the neutralisation of AD-PHF Tau seeding of HEK293 cells expressing P301S Tau (TR-FRET of aggregated Tau), antibody 0.1 to 300 nM; effect only at the highest doses [1] turn out when B1 was run?
Answer: The neutralisation of AD-PHF Tau seeding of HEK293 cells expressing P301S Tau (TR-FRET of aggregated Tau), antibody 0.1 to 300 nM; effect only at the highest doses was 74%.

Question: What about the Kd [2] of the same binder?
Answer: Its Kd is 3.1 nM.

Question: What about the koff [2] of the same binder?
Answer: The koff was 0.000117 s⁻¹.

Question: And the kon [2]?
Answer: Its kon is 40000 M⁻¹ s⁻¹.

B2: antibody F (antibody, V domains shown)
VH: EVQLVQSGAEVKKPGESLKISCKGSGYTFSNYWIEWVRQMPGKGLEWMGEILPGSDSIKYEKNFKGQVTISADKSISTAYLQWSSLKASDTAMYYCARRGNYVDDWGQGTLVTVSS
VL: EIVLTQSPGTLSLSPGERATLSCRSSQSLVHSNQNTYLHWYQQKPGQAPRLLIYKVDNRFSGIPDRFSGSGSGTDFTLTISRLEPEDFAVYYCSQSTLVPLTFGGGTKVEIK
Question: Which Kd [2] does the source give for B2 here?
Answer: The Kd was 25.8 nM.

Question: What about the koff [2] of the same binder?
Answer: Its koff is 0.00196 s⁻¹.

Question: What about the kon [2] of the same binder?
Answer: The kon was 730000 M⁻¹ s⁻¹.

B3: antibody A (antibody, V domains shown)
VH: EVHLVESGGALVKPGGSLKLSCAASGFSFSKYGMSWVRQTPDKRLEWVATISSSGSRTYYPDSVKGQFTISRDNAKNTLYLQMSSLKSEDTAMYYCSISWDGAMDYWGQGTSVTVSS
VL: DVLMTQTPLSLPVSLGDQASISCKSSQSIVHSNGNTYLEWYLQKPGQSPKLLVYKVSNRFSGVPDRFSGSGSGTDFTLKISRVEAEDLGTYYCFQGSLVPWAFGGGTKLEIK
Question: What does the source list for B3?
Answer: Kd [2]: 0.12 nM; koff [2]: 2.5e-05 s⁻¹; kon [2]: 230000 M⁻¹ s⁻¹
